The record followed here is article PMC4682084 (Scientific Reports, 2015).

In assay [1] the target is fully human monoclonal agonistic anti-TRAIL-R2 antibody KMTR2 (human).
Assay [2] has as its target T1, ecTRAIL-R2:Fc fusion protein (human, UniProt O14763).
T1 construct: TRAIL receptor 2 (TRAIL-R2, DR5), human, extracellular region, residues Ala54-Lys181; also called ecTRAIL-R2 fused with Fc; soluble TRAIL-R2 fused with the Fc region of IgG; source: CHO cells, purified (HiTrap rProtein A FF); not shown: Fc (human IgG1), C-terminal, kept
Put plainly: SEC; antibody mixed with ecTRAIL-R2:Fc in PBS at a molar ratio of 1:1, 30 min 37 °C; Superdex 200 10/300 GL in D-PBS(-). Conditions: both partners purified.

The target of assay [3] is T2, endogenous TRAIL-R2 in Colo205 cells (human (endogenous in Colo205), UniProt O14763).
T2 construct: TRAIL receptor 2 (TRAIL-R2, DR5), endogenous on the human colorectal adenocarcinoma cell line Colo205; also called DR5; membrane TRAIL-R2; source: endogenous, on Colo205 cells
Briefly: immunostaining of cells or tissue; Colo205 cells incubated with gel filtration fractionated monomeric antibody, 100 ng/mL, 1.5 h 37 °C; Alexa 488-labeled anti-human IgG Fab; confocal microscopy. As to conditions: one partner purified.

The target of assay [4] is T3, extracellular region of TRAIL-R2 (ecTRAIL-R2) (human, UniProt O14763).
T3 construct: TRAIL receptor 2 (TRAIL-R2, DR5), human, extracellular region, residues Ala54-Lys181; also called DR5; source: CHO cells as ecTRAIL-R2:Fc fusion, purified (rProtein A), digested with enterokinase, cation-exchange chromatography; not shown: Fc (human IgG1), C-terminal, cleaved
Put plainly: SEC-MALS; ecTRAIL-R2 mixed with excess KMTR2-Fab, RT 1 h; Superdex 200 HR 10/30, 20 mM HEPES pH 7.2, 0.2 M NaCl; multi-angle light scattering (mini-DAWN). As to conditions: both partners purified.

Turning to “fully human monoclonal agonistic anti-TRAIL-R2 antibody KMTR2”, the inhibition of the proliferation of Colo205 cells (MTS), 1-100 ng/mL, without cross-linking reagent in assay [1] fell in the range of 6 to 7 ng/mL.

B1: KMTR2 LkN53R mutant (Asn53 to Arg in the light kappa chain) (antibody, V domains shown)
VH: QVQLVQSGAEMKKPGASVKVSCKTSGYTFTNYKINWVRQAPGQGLEWMGWMNPDTDSTGYPQKFQGRVTMTRNTSISTAYMELSSLRSEDTAVYYCARSYGSGSYYRDYYYGMDVWGQGTTVTVSS
VL: EIVLTQSPATLSLSPGERATLSCRASQSVSSYLAWYQQKPGQAPRLLIYDASRRATGIPARFSGSGSGTDFTLTISSLEPEDFAVYYCQQRSNWPLTFGGGTKVEIK
notes: as the heavy chain of m5; Fab part (Gln1-Ser226) in PDB 3X3F and 3X3G; as the light kappa chain of m5 (Glu1-Cys214 in PDB 3X3F and 3X3G) with Asn53 changed to Arg; Whole IgG made from the N5KG4-KMTR2 vector by site-directed mutagenesis; copies: 2 + 2
Consider B1, for which the binding result in assay [2] and in assay [3] was “binds” throughout.

B2: Fab fragment derived from KMTR2 (KMTR2-Fab) (Fab, V domains shown)
VH: QVQLVQSGAEMKKPGASVKVSCKTSGYTFTNYKINWVRQAPGQGLEWMGWMNPDTDSTGYPQKFQGRVTMTRNTSISTAYMELSSLRSEDTAVYYCARSYGSGSYYRDYYYGMDVWGQGTTVTVSS
VL: EIVLTQSPATLSLSPGERATLSCRASQSVSSYLAWYQQKPGQAPRLLIYDASNRATGIPARFSGSGSGTDFTLTISSLEPEDFAVYYCQQRSNWPLTFGGGTKVEIK
notes: heavy chain of KMTR2-Fab; light kappa chain of KMTR2; Fully human monoclonal antibody from KM mice; source: papain digestion of recombinant KMTR2, purified by cation-exchange chromatography
For the molecule B2, the “stoichiometry N” value in assay [4] amounted to 1.
